The record followed here is US20070065439A1.

The assay concerns the target type I IL-1 receptor (IL-1R) (UniProt P14778). As to the kind of experiment: cell-based or functional assay.

type I IL-1 receptor (IL-1R), sequence (P14778 18-569 limits assumed): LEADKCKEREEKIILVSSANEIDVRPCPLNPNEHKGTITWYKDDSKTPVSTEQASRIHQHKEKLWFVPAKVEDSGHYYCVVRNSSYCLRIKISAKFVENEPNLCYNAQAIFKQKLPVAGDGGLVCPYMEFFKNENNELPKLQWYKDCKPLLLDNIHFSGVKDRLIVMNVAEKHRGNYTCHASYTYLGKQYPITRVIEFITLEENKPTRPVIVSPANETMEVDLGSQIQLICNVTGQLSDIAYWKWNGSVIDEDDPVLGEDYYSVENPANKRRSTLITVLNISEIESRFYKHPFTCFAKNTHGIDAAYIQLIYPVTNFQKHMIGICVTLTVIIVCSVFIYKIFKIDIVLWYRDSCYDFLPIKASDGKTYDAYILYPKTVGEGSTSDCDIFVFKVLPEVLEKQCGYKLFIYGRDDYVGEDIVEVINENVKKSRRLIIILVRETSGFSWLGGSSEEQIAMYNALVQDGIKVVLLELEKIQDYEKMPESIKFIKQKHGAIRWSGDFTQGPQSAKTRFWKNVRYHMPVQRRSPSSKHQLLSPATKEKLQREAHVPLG

Turning to “anakinra (KINERET) (from UniProt P18510 26-177) (ligand)”, the EC50, inhibition of IL-1β-induced IL-6 production in MRC-5 cells is 0.077 nM and the EC50, inhibition of IL-1β-induced IL-8 production in human whole blood was found to be 0.984 nM.
